The text below walks through data of patent publication US20220313738A1.

The experiment concerns the target Jurkat-M663, Jurkat-M665 and Jurkat-M666 (ISD-modified BCMA CARs M663, M665, M666). The experiment can be described thus: cell-based or functional assay.

B1: wildtype SIV Nef, Q02840 1-223 (protein)
chain: MGSSNSKRQQQGLLKLWRGLRGKPGADWVLLSDPLIGQSSTVQEECGKALKKSWGKGKMTPDGRRLQEGDTFDEWDDDEEEVGFPVQPRVPLRQMTYKLAVDFSHFLKSKGGLDGIYYSERREKILNLYALNEWGIIDDWQAYSPGPGIRYPRVFGFCFKLVPVDLHEEARNCERHCLMHPAQMGEDPDGIDHGEVLVWKFDPKLAVEYRPDMFKDMHEHAKR
Turning to B1, the relative ISD-modified CAR positive rate (FACS), days 6, 7 and 8 is 41.2 to 69.8%.

B2: SIV Nef M116, Q02840 1-223 (protein)
chain: MGSSNSKRQQQGLLKLWRGLRGKPGADWVLLSDPLIGQSSTVQEECGKALKKSWGKGKMTPDGRRLQEGDTFDEWDDDEEEVGFPVQPRVPLRQMTYKLAVDFSHFLKSKGGLDGIYYSERREKILNLYALNEWGIIDDWQAYSPGPGIRYPRVFGFCFKLVPVDLHEEARNCERHCAAHPAQMGEDPDGIDHGEVLVWKFDPKLAVEYRPDMFKDMHEHAKR
For B2, the relative ISD-modified CAR positive rate (FACS), days 6, 7 and 8 was 44.6 to 64.9%.
